We go through one substance from patent US20240279350A1.

In the assay the target is human CD40 on cells (human) (UniProt P25942). The experiment in a line: cell-based or functional assay.
human CD40 on cells (human), sequence (P25942 21-277 limits assumed): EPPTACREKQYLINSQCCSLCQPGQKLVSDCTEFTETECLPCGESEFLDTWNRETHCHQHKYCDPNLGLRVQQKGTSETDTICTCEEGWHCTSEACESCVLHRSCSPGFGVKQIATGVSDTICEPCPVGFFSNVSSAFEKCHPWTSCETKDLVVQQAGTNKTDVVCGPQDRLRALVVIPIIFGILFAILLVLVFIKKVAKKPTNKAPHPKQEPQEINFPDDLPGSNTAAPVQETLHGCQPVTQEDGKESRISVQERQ

Turning to “Hexameric CD40L (from UniProt P29965 116-261) (ligand)”, the EC50, CD83 expression, MoDC maturation assay came out at 0.24 nM and the EC50, IL-8 release, MoDC maturation assay came out at 0.33 nM.
